According to PMC9913602:

Experiments:
[1] = target: HCV NS3/NS4A protease complex (NS3 protease domain residues 1-182 preincubated with synthetic NS4A cofactor peptide) (hepatitis C virus); experiment: single-turnover cleavage kinetics (Western blot of remaining substrate); 0.1 μM IKKε with 5 μM NS3 + 244 μM NS4A peptide, 23 °C, digestion buffer (50 mM HEPES pH 7.8, 0.5 mM EDTA, 25% glycerol, 10 mM DTT, 0.25 M KCl, 0.05 M NaCl, 0.2% CHAPS); Kd estimated by Equation (2) from the constant c of the single-exponential fit, assumed to be unbound kinase
[2] = target: HCV NS3/NS4A protease complex (NS3 protease domain residues 1-182 preincubated with synthetic NS4A cofactor peptide) (hepatitis C virus); experiment: single-turnover cleavage kinetics (Western blot of remaining substrate); 0.5 μM IKKε with 5 μM NS3 + 244 μM NS4A peptide, 23 °C, digestion buffer (50 mM HEPES pH 7.8, 0.5 mM EDTA, 25% glycerol, 10 mM DTT, 0.25 M KCl, 0.05 M NaCl, 0.2% CHAPS); Kd estimated by Equation (2) from the constant c of the single-exponential fit, assumed to be unbound kinase

Substance “Recombinant human IKKε (Inhibitor of κB kinase ε) (from UniProt Q14164 1-716) (enzyme)” has a Kd [1] of 4.57 µM and a Kd [2] of 1.68 µM.
